# From patent US20130338077A1 (INDIANA UNIVERSITY RESEARCH AND TECHNOLOGY, published 2013)
# Molecular target: T1, recombinant human p65 protein, full-length, with DDK (r-p65:DDK) (human, UniProt Q04206 1-551)
# T1 construct: mature; also called full-length r-p65:DDK; p65 subunit of NF-kB; not shown: DDK tag
# Assay: kinetic ELISA, plate-bound GILZ-P probed with r-p65:DDK; Scatchard plot and linear regression; plate-bound GILZ-P (synthetic peptide), not r-GILZ
# T1 sequence (Q04206 whole entry): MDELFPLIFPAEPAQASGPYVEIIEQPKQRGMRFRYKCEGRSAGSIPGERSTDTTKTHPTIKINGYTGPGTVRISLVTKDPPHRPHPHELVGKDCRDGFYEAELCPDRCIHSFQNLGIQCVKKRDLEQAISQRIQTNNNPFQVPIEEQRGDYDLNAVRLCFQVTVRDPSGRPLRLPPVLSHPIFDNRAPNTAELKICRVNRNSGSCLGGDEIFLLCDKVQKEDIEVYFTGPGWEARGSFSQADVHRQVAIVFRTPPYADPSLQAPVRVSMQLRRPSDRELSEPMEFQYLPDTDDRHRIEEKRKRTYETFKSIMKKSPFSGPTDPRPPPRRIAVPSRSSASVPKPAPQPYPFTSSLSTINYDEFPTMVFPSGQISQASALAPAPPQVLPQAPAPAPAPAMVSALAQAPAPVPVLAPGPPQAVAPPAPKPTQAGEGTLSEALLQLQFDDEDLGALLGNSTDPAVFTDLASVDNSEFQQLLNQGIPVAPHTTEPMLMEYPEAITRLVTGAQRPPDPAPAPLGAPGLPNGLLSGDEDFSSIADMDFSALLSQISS
binder,measurement,value
"Ac-CLSPEEPAPESPQVPEAPGGSAV-NH2 (also called GILZ-WT; GILZ-P115-137) [GILZ-peptide (GILZ-P), synthetic peptide from the carboxy terminus of GILZ]",Kd,1.12 µM
